This is an account of results in the Immune Epitope Database (IEDB).

Among the targets are HLA-B*07:02; HLA-A*02:01; HLA-B*44:02; HLA-A*24:02; HLA-A*01:01; HLA-A*03:01.
What all share (assay): IEDB peptide-MHC binding, purified MHC/competitive/fluorescence; filed as Kd, often an IC50 or EC50 that approximates it; ≥ and ≤ were set here for values at or beyond the usual limits of such assays
Conditions in all cases: source organism: Plasmodium falciparum 3D7

Bounds are passed on as bounds.

FPPNTFDAL: the Kd in the assay with HLA-B*07:02 came out at 2.72 µM. FDNSGISLL: the Kd with HLA-A*02:01 was not below 229 µM; in the assay with HLA-B*44:02 it was not below 1000 µM. Regarding SMTNIPMNV, the dissociation constant Kd with HLA-A*02:01 worked out at 0.244 µM.

Regarding MYHNKEFDF, the equilibrium dissociation constant (Kd) with HLA-A*24:02 turned out to be 4.51 µM.

FLENFNFPL: the equilibrium dissociation constant (Kd) is 3.68 µM with HLA-A*02:01 and not below 1000 µM with HLA-A*01:01.

In turn, EENLFEWSKT displayed a Kd with HLA-B*44:02 not below 1000 µM. In turn, RSKKTFLVK returned a dissociation constant Kd in the assay with HLA-A*03:01 of 0.409 µM. Take LFGDENFSF: the Kd with HLA-A*24:02 is 5.87 µM.

For the sequence SILISRLTL, the Kd with HLA-B*44:02 is not below 1000 µM. NENNTTYQY: in the assay with HLA-B*44:02, the Kd turned out to be 18.4 µM. For TEMFKLRLNL, the Kd with HLA-B*07:02 is not below 1000 µM; in the assay with HLA-A*24:02, not below 58.2 µM; with HLA-B*44:02, not below 54.8 µM. NLNLCGKYTK returned a Kd in the assay with HLA-A*03:01 not below 1000 µM. In the assay with HLA-B*07:02, IPPQVFDYPI registered a Kd not below 245 µM. HYGINPVQL returned a Kd with HLA-A*24:02 of 6.79 µM.

YPIEKLGHV displayed a dissociation constant Kd with HLA-B*07:02 of 0.257 µM. On to KLPPLLNEI, for which the Kd with HLA-A*24:02 was 0.0887 µM; in the assay with HLA-A*02:01, 2.66 µM. Consider DDTFEVYSEY, for which the dissociation constant (Kd) with HLA-A*01:01 and in the assay with HLA-B*44:02 was not below 1000 µM each time. Consider IENNLYERL, for which the Kd in the assay with HLA-B*44:02 is not below 60.1 µM.

With MDFPKLLNK, the dissociation constant (Kd) with HLA-A*03:01 stood at 2.08 µM. STDIIFLTMK: the results for the equilibrium dissociation constant (Kd) with HLA-A*03:01 and with HLA-A*01:01 were 8.78 µM and not below 1000 µM, respectively. Regarding IWYKYTESDF, the Kd with HLA-A*24:02 turned out to be 1.12 µM. On the same count and under the same terms, the same measure for EWLKTCKYYC: not below 578 µM.

As to TYSIYTNFKN, the dissociation constant (Kd) with HLA-A*24:02 was not below 26.6 µM. Still for that read-out and setting: the same measure for NYNNDQYNI: 6.54 µM. In the case of HPFLKSGFTF, the Kd with HLA-B*07:02 is 0.226 µM; with HLA-A*24:02 it was 10.5 µM; in the assay with HLA-B*44:02 it was not below 1000 µM. As to LLFQKAANL, the dissociation constant (Kd) in the assay with HLA-A*02:01 was 1.88 µM. As for YYPIIRKQF, the dissociation constant Kd with HLA-A*24:02 was determined as 0.101 µM. In the case of TMANQNMNYK, in the assay with HLA-A*03:01, the Kd is 0.209 µM. SSANDEQSY came in with a Kd with HLA-A*01:01 not below 65 µM. Consider LISRLTLKY, for which the Kd with HLA-A*01:01 came to 11.5 µM. In turn, RNIISKHTSV returned an equilibrium dissociation constant (Kd) in the assay with HLA-B*07:02 not below 505 µM. In the case of ALNLFFQNK, in the assay with HLA-A*03:01, the Kd came to 1.14 µM.

Turning to LSSNIENIY, the Kd in the assay with HLA-A*01:01 is not below 29.6 µM. ASFSASTGY: the Kd was 2.37 µM with HLA-A*03:01, not below 1000 µM with HLA-A*01:01 and not below 31.7 µM in the assay with HLA-B*44:02. For the sequence TSKQGSSNKY, the Kd with HLA-A*01:01 was not below 1000 µM. Take RLNLFCFSFL: the Kd in the assay with HLA-A*02:01 is not below 161 µM; in the assay with HLA-A*03:01 it was 6.12 µM; in the assay with HLA-B*44:02 it was not below 421 µM.

For RLNLFCFSF, the Kd with HLA-A*24:02 is 11 µM; with HLA-B*44:02, not below 1000 µM.

Consider FPKLLNKPSL, for which the equilibrium dissociation constant (Kd) with HLA-B*07:02 was not below 73.1 µM. The same measure, in the same setting: the same measure for SPHDTMQKDD: not below 1000 µM. In the assay with HLA-A*24:02, NYKQNNFPF returned a Kd of 9.49 µM. In the case of KNYDNYNMK, in the assay with HLA-A*03:01, the Kd is 2.51 µM. In turn, NNNFRNNMY gave a Kd with HLA-A*01:01 not below 1000 µM. In the assay with HLA-B*44:02, DENLKAIQI had a Kd not below 91.3 µM. The same measure, in the same setting: the same measure for SKHPFLKSGF: not below 1000 µM. In the assay with HLA-A*02:01, NLFEWSKTV came in with a Kd of 1.62 µM.

As to NLFFQNKSI, the dissociation constant Kd with HLA-A*02:01 was not below 1000 µM. Regarding TMANQNMNY, the equilibrium dissociation constant (Kd) worked out at 0.943 µM with HLA-A*03:01 and 2.02 µM with HLA-A*01:01.

For HPKYRNFKF, in the assay with HLA-B*07:02, the Kd came out at 0.336 µM. As for RLNNRSIYK, the dissociation constant (Kd) with HLA-A*03:01 is 0.224 µM. In the assay with HLA-A*03:01, QVFDYPIEK came in with a Kd of 1.57 µM. As to KLYSINSKSI, the results for the dissociation constant (Kd) with HLA-B*07:02 and with HLA-A*02:01 were not below 225 µM and not below 57.7 µM, respectively. Sequence FLLNLLNEHV gave a dissociation constant Kd with HLA-A*02:01 of 1.68 µM. In the assay with HLA-A*03:01, RISGWKGDNK displayed a Kd of 0.548 µM. As for KTCKYYCFK, the Kd in the assay with HLA-A*03:01 was not below 116 µM. ITNKNKVTIY: the Kd with HLA-A*03:01 was 8.72 µM; with HLA-A*01:01, not below 1000 µM. The like results for TTFFESVSY were, in that order, not below 658 µM and not below 338 µM.

For RSSGSTFSIK, the Kd in the assay with HLA-A*03:01 worked out at 0.326 µM. On to TEYFKNKNM, for which the Kd with HLA-B*44:02 was not below 31.4 µM. In the assay with HLA-B*07:02, KPNFWRFQDY yielded a Kd not below 1000 µM.

As for WLNNDIYNV, the Kd with HLA-A*02:01 was 0.16 µM. Turning to LLNSDRRDL, in the assay with HLA-B*07:02, the equilibrium dissociation constant (Kd) was determined as 0.2 µM. NMYQQNIPL displayed a Kd with HLA-A*02:01 not below 331 µM. The same measure, in the same setting: the same measure for SLTHKYNEFV: not below 182 µM. The sequence NSDKLDLIY gave a dissociation constant Kd with HLA-A*01:01 of 0.875 µM. In the case of KMKSDQYPI, the Kd with HLA-A*24:02 turned out to be 6.9 µM; with HLA-A*02:01, 3.07 µM. On to SHPKYRNFKF, for which, in the assay with HLA-A*24:02, the equilibrium dissociation constant (Kd) turned out to be 16.6 µM. In the case of KEDDTFEVY, in the assay with HLA-A*01:01, the Kd is not below 1000 µM. NPVQLKSKF displayed a dissociation constant (Kd) in the assay with HLA-B*07:02 not below 59.6 µM. In the assay with HLA-B*07:02, TIYGKGGFQF registered an equilibrium dissociation constant (Kd) not below 109 µM. HPMPINIKL: the equilibrium dissociation constant (Kd) with HLA-B*07:02 worked out at 0.168 µM.

In turn, NSPNVNKRY came in with a Kd with HLA-A*01:01 not below 1000 µM. On to KYDPRISGW, for which the Kd with HLA-A*24:02 was determined as 5.01 µM. For the sequence VIHYGINPV, in the assay with HLA-A*02:01, the dissociation constant Kd is 1.7 µM. Take SLTHKYNEF: the Kd with HLA-A*24:02 came out at 12.6 µM.

Turning to FTNVNQFFK, the figures for the Kd with HLA-A*03:01 and with HLA-A*01:01 were 0.921 µM and not below 1000 µM, respectively. MENEDVEFI yielded a dissociation constant (Kd) with HLA-B*44:02 not below 36.9 µM. The sequence YESQLGGKI displayed a dissociation constant (Kd) in the assay with HLA-B*44:02 not below 66.3 µM. On to ILISRLTLK, for which the Kd with HLA-A*03:01 is 0.22 µM. On the same count and under the same terms, the same measure for FCFSFLKSSK: 9.21 µM. For the sequence FIDPQTEMFK, the results for the Kd in the assay with HLA-A*03:01 and with HLA-A*01:01 were 8.1 µM and not below 46.6 µM, respectively. The sequence IYGKGGFQF yielded a Kd with HLA-A*24:02 of 0.163 µM. Regarding GLSPHDTMQK, the equilibrium dissociation constant (Kd) with HLA-A*03:01 was 1.1 µM.

NTVKCPNDY yielded a dissociation constant Kd with HLA-A*01:01 not below 282 µM. As for NMNYKQNNF, the Kd with HLA-A*24:02 was found to be 14.7 µM. Turning to LTHKYNEFV, the dissociation constant Kd is 2.41 µM with HLA-A*02:01 and not below 174 µM with HLA-A*01:01. Take SESTSTYNT: in the assay with HLA-B*44:02, the Kd is not below 103 µM.

In the assay with HLA-A*24:02, PFLKSGFTF yielded a Kd of 8.32 µM. The sequence YITNKNKVTI displayed a Kd with HLA-A*02:01 not below 1000 µM.

In turn, LTMKMINNK had a Kd with HLA-A*03:01 of 0.472 µM. DSDDLKESY: the dissociation constant Kd with HLA-A*01:01 came to 2.6 µM. In the assay with HLA-A*02:01, ILYKNIDCV yielded a Kd of 1.4 µM. LISTDIIFL registered a dissociation constant Kd with HLA-A*02:01 of 0.614 µM. SISDYTKSL: the equilibrium dissociation constant (Kd) in the assay with HLA-A*02:01 was not below 352 µM. Regarding LPIEPKKLA, the equilibrium dissociation constant (Kd) with HLA-B*07:02 is not below 561 µM. The sequence HYNTYKNRVF gave a Kd with HLA-A*24:02 of 3 µM. The sequence GIANDLSTL showed a Kd with HLA-A*02:01 of 5.73 µM.

NEEIIDLLNL: in the assay with HLA-B*44:02, the Kd is not below 433 µM.

CRDKTSALY registered an equilibrium dissociation constant (Kd) with HLA-A*01:01 not below 1000 µM. As for YGKGGFQFVF, the Kd with HLA-A*24:02 amounted to 0.231 µM. As to YTIGLPPYI, the dissociation constant Kd with HLA-A*24:02 was 6.57 µM; in the assay with HLA-A*02:01 it was 2.46 µM. As to AEISRNDLI, the Kd with HLA-B*44:02 amounted to 4.53 µM. Take DTFEVYSEY: the dissociation constant (Kd) with HLA-A*03:01 and with HLA-A*01:01 was not below 1000 µM in each case. NTFDALYYV: the dissociation constant Kd with HLA-A*02:01 is 8.76 µM; in the assay with HLA-A*01:01, not below 1000 µM.

In turn, KEEKEINDEY had an equilibrium dissociation constant (Kd) with HLA-B*44:02 not below 1000 µM.

As to SIASKNLMWV, the Kd in the assay with HLA-B*07:02 was not below 1000 µM; with HLA-A*02:01, not below 284 µM; with HLA-A*03:01, not below 1000 µM.

For orientation: Kd means the concentration at which binding is half-saturated. Read a high Kd as a looser complex.
